Experimental data taken from paper PMC10397247.

T1: 4H346-bH
T1 chain: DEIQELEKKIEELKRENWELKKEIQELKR

T2: 4H730-bA
T2 chain: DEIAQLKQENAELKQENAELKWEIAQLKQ

T3: 4H56-bA
T3 chain: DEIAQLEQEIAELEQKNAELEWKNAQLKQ

T4: 4H3381-bA
T4 chain: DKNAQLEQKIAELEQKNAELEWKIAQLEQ

T5: 4H949-bA
T5 chain: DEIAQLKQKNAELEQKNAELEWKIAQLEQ

T6: 4H2585-bA
T6 chain: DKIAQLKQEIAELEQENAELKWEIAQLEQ

T7: 4H3041-bA
T7 chain: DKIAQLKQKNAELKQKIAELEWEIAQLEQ

T8: 4H3364-bA
T8 chain: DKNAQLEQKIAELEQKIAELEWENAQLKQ

T9: 4H796-bA
T9 chain: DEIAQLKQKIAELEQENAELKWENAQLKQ

T10: 4H2859-bA
T10 chain: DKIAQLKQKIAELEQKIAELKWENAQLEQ

T11: 4H932-bA
T11 chain: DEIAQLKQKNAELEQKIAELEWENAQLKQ

T12: 4H264-bA
T12 chain: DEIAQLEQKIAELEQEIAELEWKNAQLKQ

T13: 4H3297-bA
T13 chain: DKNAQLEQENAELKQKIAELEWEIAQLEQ

T14: 4H2931-bA
T14 chain: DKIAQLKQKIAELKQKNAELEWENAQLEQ

T15: 4H349-bA
T15 chain: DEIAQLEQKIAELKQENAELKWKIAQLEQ

T16: 4H2760-bA
T16 chain: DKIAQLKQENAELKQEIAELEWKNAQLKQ

T17: P6A-bP
T17 chain: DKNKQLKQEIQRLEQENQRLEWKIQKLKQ

T18: P9A-bP
T18 chain: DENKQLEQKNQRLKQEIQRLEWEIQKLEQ

T19: P8A-bP
T19 chain: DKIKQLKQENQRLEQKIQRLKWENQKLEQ

T20: P7A-bP
T20 chain: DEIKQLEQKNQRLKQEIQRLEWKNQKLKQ


Columns and labels:
Assay in all cases: two-hybrid library CCNG1;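 also: natural log of median RNA to DNA barcode read ratio; higher means stronger binding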
4H346-bH = molecular target: T1, 4H346-bH
4H730-bA = molecular target: T2, 4H730-bA
4H56-bA = molecular target: T3, 4H56-bA
4H3381-bA = molecular target: T4, 4H3381-bA
4H949-bA = molecular target: T5, 4H949-bA
4H2585-bA = molecular target: T6, 4H2585-bA
4H3041-bA = molecular target: T7, 4H3041-bA
4H3364-bA = molecular target: T8, 4H3364-bA
4H796-bA = molecular target: T9, 4H796-bA
4H2859-bA = molecular target: T10, 4H2859-bA
4H932-bA = molecular target: T11, 4H932-bA
4H264-bA = molecular target: T12, 4H264-bA
4H3297-bA = molecular target: T13, 4H3297-bA
4H2931-bA = molecular target: T14, 4H2931-bA
4H349-bA = molecular target: T15, 4H349-bA
4H2760-bA = molecular target: T16, 4H2760-bA
P6A-bP = molecular target: T17, P6A-bP
P9A-bP = molecular target: T18, P9A-bP
P8A-bP = molecular target: T19, P8A-bP
P7A-bP = molecular target: T20, P7A-bP

interaction score (4H346-bH) | interaction score (4H730-bA) | interaction score (4H56-bA) | interaction score (4H3381-bA) | interaction score (4H949-bA) | interaction score (4H2585-bA) | interaction score (4H3041-bA) | interaction score (4H3364-bA) | interaction score (4H796-bA) | interaction score (4H2859-bA) | interaction score (4H932-bA) | interaction score (4H264-bA) | interaction score (4H3297-bA) | interaction score (4H2931-bA) | interaction score (4H349-bA) | interaction score (4H2760-bA) | interaction score (P6A-bP) | interaction score (P9A-bP) | interaction score (P8A-bP) | interaction score (P7A-bP) | Binder
1.98 | -1.31 | -0.397 | -0.791 | -1.08 | 0.266 | 0.083 | -0.878 | -1.49 | -0.28 | -0.825 | -1.54 | -1.21 | -0.357 | 1.13 | 0.582 | – | – | – | – | DKIAQLKQEIAELEQENAELKWEIAQLEQ [4H2585-bA]
– | – | – | – | – | – | – | – | – | – | – | – | – | – | – | – | -0.494 | -0.616 | -0.264 | 0.418 | DKNKQLKQEIQRLEQENQRLEWKIQKLKQ [P6A-bP]
